Laboratory results as given in patent publication CN114075552A (MEDX TRANSLATIONAL MEDICINE CO LTD, dated 2022).
Blank lines part the entries; values can stand above or below the binder they belong to.

What was measured:
[1] = biological target: T1, 原核表达的TF-FGL1融合蛋白 (human FGL1 Leu23-Ile312 fused to trigger factor, pCold TF, expressed in E. coli BL21(DE3)) (human); assay: indirect ELISA, antigen coated at 0.5 µg/mL, purified antibody 0.5 µg/mL
T1 construct: also called 原核表达的FGL1蛋白; TF-FGL1蛋白
T1 chain: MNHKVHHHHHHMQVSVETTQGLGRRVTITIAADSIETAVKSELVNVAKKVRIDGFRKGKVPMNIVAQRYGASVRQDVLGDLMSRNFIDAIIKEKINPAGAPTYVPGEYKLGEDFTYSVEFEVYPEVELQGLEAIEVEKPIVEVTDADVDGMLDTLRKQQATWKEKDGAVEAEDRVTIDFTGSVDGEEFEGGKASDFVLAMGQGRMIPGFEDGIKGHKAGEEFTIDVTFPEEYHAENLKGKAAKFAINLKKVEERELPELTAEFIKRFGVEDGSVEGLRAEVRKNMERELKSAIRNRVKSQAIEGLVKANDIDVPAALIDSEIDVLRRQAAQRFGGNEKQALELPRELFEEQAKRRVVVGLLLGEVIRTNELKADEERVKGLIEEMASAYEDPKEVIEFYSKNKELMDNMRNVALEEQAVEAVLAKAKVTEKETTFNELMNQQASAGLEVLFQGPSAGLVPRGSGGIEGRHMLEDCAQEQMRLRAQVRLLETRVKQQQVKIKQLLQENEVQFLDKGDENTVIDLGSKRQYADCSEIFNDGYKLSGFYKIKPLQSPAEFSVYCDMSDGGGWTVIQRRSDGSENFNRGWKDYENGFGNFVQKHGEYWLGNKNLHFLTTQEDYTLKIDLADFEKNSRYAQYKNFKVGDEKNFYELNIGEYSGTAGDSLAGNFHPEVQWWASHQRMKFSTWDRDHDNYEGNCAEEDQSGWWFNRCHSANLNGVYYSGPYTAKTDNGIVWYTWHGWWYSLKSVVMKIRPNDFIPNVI

[2] = biological target: T2, 真核表达的人FGL1重组蛋白 (human FGL1 Leu23-Ile312 with C-terminal 6xHis, expressed in 293F cells) (human, UniProt Q08830 23-312); assay: indirect ELISA screen, hybridoma supernatant on coated human FGL1 recombinant protein (0.5 µg/mL)
T2 construct: also called 真核表达的FGL1蛋白; 真核表达的人FGL1蛋白
T2 sequence: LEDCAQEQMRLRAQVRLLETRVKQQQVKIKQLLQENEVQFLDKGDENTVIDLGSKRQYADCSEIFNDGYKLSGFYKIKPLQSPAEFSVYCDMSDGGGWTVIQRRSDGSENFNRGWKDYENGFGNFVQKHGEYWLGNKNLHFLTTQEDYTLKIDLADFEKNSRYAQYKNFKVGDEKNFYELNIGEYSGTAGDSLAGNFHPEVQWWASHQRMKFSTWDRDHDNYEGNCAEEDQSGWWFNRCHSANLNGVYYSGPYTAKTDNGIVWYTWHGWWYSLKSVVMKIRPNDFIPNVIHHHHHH

[3] = biological target: T2, 真核表达的人FGL1重组蛋白 (human FGL1 Leu23-Ile312 …); assay: indirect ELISA, antigen coated at 0.5 µg/mL, purified antibody 0.5 µg/mL

binding result [1]: binds
binding result [2]: binds
B1: 克隆号为MJ9-1的杂交瘤细胞(CGMCC No.23015)分泌的抗FGL1单克隆抗体 (antibody, mouse IgG1, kappa, V domains shown)
VH: EVQLVESGGGLVKPGGSLKLSCAASGFTFSDGYMYWVRQTPEKRLEWVATISDGGSGTYYPDSVKGRFTISRDNAKNNLYLQMSSLKSEDTAMYYCARAATVTRWFAYWGQGTLVTVSA
VL: DIQMNQSPSSLSASLGDTITITCHASYNINVWLTWYQQKPGNIPKLLIYKASKLHTGVPSRFSGSGSGTGFTLTISSLQPEDIATYYCQQGQSYPLTFGGGTKLEIKR
notes: also called MJ9-1分泌的单克隆抗体; 第一单克隆抗体

binding result [1]: binds
binding result [3]: binds
B2: 克隆号为MJ9-4的杂交瘤细胞(CGMCC No.23016)分泌的抗FGL1单克隆抗体 (antibody, mouse IgG1, kappa, V domains shown)
VH: EVKLQQSGAELAKPGASVKMSCKASGYIFTGGWMHWVKQRPGQGLEWIGYINPSTDGTDYNQKFEDKATLTADKSSSTAYMQLSSLTSEDSAVYYCAREGYYGSSPYFDYWGQGTTLTVSS
VL: DIVITQTPATLSVTPGDSVSLSCRASQSVSNNLHWYQQKSHESPRLLIKYVSQSISGIPSRFSGSGSGTDFTLSINSVETEDFGMYFCQQSNSWPLYTFGGGTKLEIKR
notes: also called MJ9-4分泌的单克隆抗体; 第二单克隆抗体
